We go through one molecule from publication PMC12637021, “Talin–tensin3 interactions regulate fibrillar adhesion formation and tensin3 phase separation” (The Journal of Cell Biology, 2025).

For one series, the system named is TNS3KO cells. Briefly: FN fibrils, rescue of TNS3KO cells. Type of series: cell-based, human. The conditions noted are these: vs TNS3-WT; IST9 antibody; 40 × 40 μm squares; n = 56 (WT) and 54 (L702E) cells. How it is done: (§1) Cells were fixed in 4% paraformaldehyde (PFA, Sigma-Aldrich), which had been prewarmed to 37°C for 15 min before being washed three times with PBS. For immunofluorescence staining, cells were permeabilized with 0.5% Triton X-100 (Sigma-Aldrich) at room temperature for 5 min before being washed three times with PBS. Blebbistatin (Tocris Bioscience) was diluted in dimethyl sulfoxide (Sigma-Aldrich) and used at a final concentration of 50 μM. […]
To analyze the FN fibrils, the images were background-subtracted (rolling ball), before 40 × 40 μm square boxes were applied for particle analysis to count FN fibrils larger than 0.2 μm^2. The FN coverage was calculated by dividing the area covered by FN fibrils by the total area of the box (1,600 μm^2).

Another series concerns U2OS TNS3KO cells. Briefly: adhesion stability under blebbistatin, U2OS TNS3KO cells. The series is classed as cell-based, human. The conditions noted are these: blebbistatin 50 µM. How it is done: (§2) Cells were fixed in 4% paraformaldehyde (PFA, Sigma-Aldrich), which had been prewarmed to 37°C for 15 min before being washed three times with PBS. For immunofluorescence staining, cells were permeabilized with 0.5% Triton X-100 (Sigma-Aldrich) at room temperature for 5 min before being washed three times with PBS. Blebbistatin (Tocris Bioscience) was diluted in dimethyl sulfoxide (Sigma-Aldrich) and used at a final concentration of 50 μM. The following primary antibodies were diluted in 1% bovine serum albumin (BSA, Sigma-Aldrich): mouse anti-α5 integrin (SNAKA51, 1:100, NBP2-50146; Novus Biologicals), rat anti-β1 integrin (9EG7, 1:200; 553715; BD Biosciences), mouse anti-FN (IST-9, 1:100, ab6328; Abcam), rabbit anti-tensin3 (1:200, HPA055338; Atlas), mouse anti-EEA1 (1:500, 68065-1-IG; Proteintech), mouse anti-LAMP1 (1:200, ab320851; Abcam), mouse anti-paxillin (349, 1:400, mab3060; Sigma-Aldrich), rabbit anti-talin1 (1:200, 82856-4-RR; Proteintech), mouse anti-vinculin (hVin1, 1:500, V9264; Sigma-Aldrich), rabbit anti-KANK2 (1:100, HPA015643; Sigma-Aldrich), rabbit anti-kindlin2 (1:100, 11453-1-AP; Proteintech), rabbit anti-GIT1 (1:200, 26247-1-AP; Proteintech), mouse anti-phosphotyrosine (4G10, 1:200, 05-321X; Sigma-Aldrich), rabbit anti-G3BP1 (1:600, 13057-2-AP; Proteintech), rabbit anti-TDP43 (1:400, 10782-2-AP; Proteintech), and rabbit anti-GIGYF1 (1:400, ab121784; Abcam). […]
(§3) Analysis of cell adhesion sites, FN fibrils, and LLPS condensates was performed using FIJI/ImageJ (version 1.54f) software ([Schindelin et al., 2012]). […] Prior to adhesion quantification, the images were background-subtracted using a rolling ball algorithm, followed by thresholding of adhesion sites and Analyse Particles functions in FIJI/ImageJ to quantify adhesions. Adhesion sites with sizes between 0.4 and 10 μm^2 were counted, except for adhesions in blebbistatin-treated cells, which were counted with sizes between 0.2 and 4 μm^2. […]

Series [1] deals with NIH3T3 cells. Briefly: adhesion stability under blebbistatin, NIH3T3 cells. Type of series: cell-based, mouse. The conditions noted are these: blebbistatin 50 µM, 60 min; n = 64 (WT), 49 (L702E), 62 (ΔPTB), 71 (Cterm) cells. The protocol: as §1, §3
Series [2] deals with NIH3T3 cells. Briefly: tensin3 condensate formation, NIH3T3 cells. The series is classed as cell-based, mouse. The protocol: To establish a correlation between tensin3 expression and condensation formation, a maximum intensity Z-projection was performed on Z-stack images of NIH3T3 cells (step depth 0.2 μm). The integrated fluorescence intensity was measured by normalizing the mean pixel intensity of each cell to the average of all values in cells expressing mCh-TNS3. To measure the condensate coverage in NIH3T3 cells, the images were background-subtracted (rolling ball) and then thresholded. This was followed by the Analyse Particles function in FIJI/ImageJ to select round condensate structures (circularity 0.7–1.0) ([Bussi et al., 2023]; [Dumelie et al., 2024]) with a size larger than 0.1 μm^2. The same settings were applied to quantify the number of condensates in NIH3T3 and HFF cells.
The percentage of NIH3T3 cells transfected with mCh-TNS3 that form phase-separated condensates was quantified manually in images (610 × 499 μm) acquired with a 20× objective. To quantify the mean radius (R) of the condensates, the area covered by the condensates was divided by the number of condensates for each cell to obtain the mean size (A) of the condensates, followed by the formula of R = √(A/3.14).

In series [3] the test system is NIH3T3 cells. Briefly: client protein recruitment to tensin3 condensates. Type of series: cell-based, mouse. Particulars: TNS3-L702E condensates.
Excerpt: Since the observed tensin3 condensates were derived from adhesion sites in a talin-regulated mechanosensitive manner, we wondered whether these condensates contain other adhesion components or signaling molecules. To address this question, we examined a selection of cell–matrix adhesion proteins that have been reported by others to be present in LLPS condensates. These proteins include LIMD1 ([Wang et al., 2021]), kindlin2 ([Hsu et al., 2023]), talin ([Hsu et al., 2023]; [Litschel et al., 2024]), KANK ([Guo et al., 2023]), tensin1 ([Lee et al., 2023]), vinculin ([Litschel et al., 2024]), and GIT1 ([Zhu et al., 2020]). We added the actin regulatory RhoGAP DLC1 to this selection, as it is known to bind tensin ([Liao et al., 2006]; [Shih et al., 2015]), and the RNA regulatory protein GIGYF1, which we had previously identified alongside many of the aforementioned proteins in tensin BioID datasets ([Atherton et al., 2022]). We also added stress granule components G3BP1 ([Tourrière et al., […]]) and TDP-43 ([Colombrita et al., 2009]). These proteins were either co-expressed as fluorescently tagged proteins (Fig. S4 I) or, where antibodies were available, probed endogenously in cells that formed GFP-TNS3 condensates (Fig. 8 A).
as §2

B1: TNS3-L702E: tensin3 carrying the L702E point mutation that blocks the interaction with talin (protein, UniProt Q68CZ2 1-1445, looked up, variant L702E)
Tensin-3: MEEGHGLDLTYITERIIAVSFPAGCSEESYLHNLQEVTRMLKSKHGDNYLVLNLSEKRYDLTKLNPKIMDVGWPELHAPPLDKMCTICKAQESWLNSNLQHVVVIHCRGGKGRIGVVISSYMHFTNVSASADQALDRFAMKKFYDDKVSALMQPSQKRYVQFLSGLLSGSVKMNASPLFLHFVILHGTPNFDTGGVCRPFLKLYQAMQPVYTSGIYNVGPENPSRICIVIEPAQLLKGDVMVKCYHKKYRSATRDVIFRLQFHTGAVQGYGLVFGKEDLDNASKDDRFPDYGKVELVFSATPEKIQGSEHLYNDHGVIVDYNTTDPLIRWDSYENLSADGEVLHTQGPVDGSLYAKVRKKSSSDPGIPGGPQAIPATNSPDHSDHTLSVSSDSGHSTASARTDKTEERLAPGTRRGLSAQEKAELDQLLSGFGLEDPGSSLKEMTDARSKYSGTRHVVPAQVHVNGDAALKDRETDILDDEMPHHDLHSVDSLGTLSSSEGPQSAHLGPFTCHKSSQNSLLSDGFGSNVGEDPQGTLVPDLGLGMDGPYERERTFGSREPKQPQPLLRKPSVSAQMQAYGQSSYSTQTWVRQQQMVVAHQYSFAPDGEARLVSRCPADNPGLVQAQPRVPLTPTRGTSSRVAVQRGVGSGPHPPDTQQPSPSKAFKPRFPGDQVVNGAGPELSTGPSPGSPTLDIDQSIEQENRLILELDPTFEPIPTHMNALGSQANGSVSPDSVGGGLRASSRLPDTGEGPSRATGRQGSSAEQPLGGRLRKLSLGQYDNDAGGQLPFSKCAWGKAGVDYAPNLPPFPSPADVKETMTPGYPQDLDIIDGRILSSKESMCSTPAFPVSPETPYVKTALRHPPFSPPEPPLSSPASQHKGGREPRSCPETLTHAVGMSESPIGPKSTMLRADASSTPSFQQAFASSCTISSNGPGQRRESSSSAERQWVESSPKPMVSLLGSGRPTGSPLSAEFSGTRKDSPVLSCFPPSELQAPFHSHELSLAEPPDSLAPPSSQAFLGFGTAPVGSGLPPEEDLGALLANSHGASPTPSIPLTATGAADNGFLSHNFLTVAPGHSSHHSPGLQGQGVTLPGQPPLPEKKRASEGDRSLGSVSPSSSGFSSPHSGSTISIPFPNVLPDFSKASEAASPLPDSPGDKLVIVKFVQDTSKFWYKADISREQAIAMLKDKEPGSFIVRDSHSFRGAYGLAMKVATPPPSVLQLNKKAGDLANELVRHFLIECTPKGVRLKGCSNEPYFGSLTALVCQHSITPLALPCKLLIPERDPLEEIAESSPQTAANSAAELLKQGAACNVWYLNSVEMESLTGHQAIQKALSITLVQEPPPVSTVVHFKVSAQGITLTDNQRKLFFRRHYPVNSVIFCALDPQDRKWIKDGPSSKVFGFVARKQGSATDNVCHLFAEHDPEQPASAIVNFVSKVMIGSPKKV
modifications: mCherry or GFP tag
In the case of B1, the “fewer FN fibrils” value with TNS3KO cells is recorded as “over 70%”. In the series with U2OS TNS3KO cells, the “subcellular localization of construct under blebbistatin” value is “almost exclusively found in the LLPS condensates in the cytoplasm”. The “construct-positive adhesions after blebbistatin” value with NIH3T3 cells [1] was “mostly disappear”. Also, the “Spearman's r, expression level vs condensate coverage” value with NIH3T3 cells [2] (n = 181 cells (WT), 168 cells (L702E)) is reported as 0.9013. Moreover, the “fold increase in number of condensates” value in the series on NIH3T3 cells [2] (vs TNS3-WT, condensates >0.1 μm^2, circularity 0.7–1, n = 68 (WT) and 100 (L702E) cells) came to 2.2 fold. Moreover, the condensate size entry with NIH3T3 cells [2] (vs TNS3-WT, mean radius) is reported as “larger”. In addition, in the series on NIH3T3 cells [3], the “localization of talin1/2, KANK1/2 and vinculin into condensates” value is listed as “failed to localize into the tensin3 condensates”; the “presence of tensin1, LIMD1, DLC1, and GIGYF1 in condensates” value is recorded as “remained present”.
